What all share (conditions): protein: recombinant; tags: 6xHis (pET-28a(+))
Data set [1] has as its target T1, GhWRKY27 (Gossypium hirsutum (CCRI74), UniProt A0A068LI73 1-355). In words: EMSA; self-competition abolishes band; supershift with anti-GhWRKY27; LightShift Chemiluminescent EMSA Kit (Thermo), manufacturer's instructions; buffer, salt, pH and temperature not stated. On the technique in general: A gel shift assay detects complexes by their altered migration in electrophoresis.

In data set [2] the target is T1, GhWRKY27. Kind of data set: competition; excess unlabelled mutant vs labelled N1; LightShift Chemiluminescent EMSA Kit (Thermo), manufacturer's instructions; buffer, salt, pH and temperature not stated.
Data set [3] concerns the target T1, GhWRKY27. Kind of data set: EMSA; self-competition; supershift with anti-GhWRKY27; LightShift Chemiluminescent EMSA Kit (Thermo), manufacturer's instructions; buffer, salt, pH and temperature not stated.

Changes are numbered by the printed parent chain.

T1 sequence (A0A068LI73 entry or part of it): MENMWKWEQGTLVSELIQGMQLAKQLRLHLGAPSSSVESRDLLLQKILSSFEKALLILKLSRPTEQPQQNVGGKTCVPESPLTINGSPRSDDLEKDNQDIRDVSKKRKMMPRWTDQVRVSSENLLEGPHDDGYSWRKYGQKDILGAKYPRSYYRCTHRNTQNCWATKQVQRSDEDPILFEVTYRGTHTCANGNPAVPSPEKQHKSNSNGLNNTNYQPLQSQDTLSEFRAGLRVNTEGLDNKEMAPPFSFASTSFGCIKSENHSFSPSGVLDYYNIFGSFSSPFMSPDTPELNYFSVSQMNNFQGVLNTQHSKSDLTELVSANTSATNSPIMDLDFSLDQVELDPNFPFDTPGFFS

B1: GhCYP94C1 wild probe (dsDNA)
DNA 1: CCAGCTCCTCGCGAAAAGAAAAATGACTAAAAAAATATTTAATTCTTAGT
DNA 2: ACTAAGAATTAAATATTTTTTTAGTCATTTTTCTTTTCGCGAGGAGCTGG
B1: in the data set with GhWRKY27 [1], the binding result is given as “binds”.

B2: GhCYP94C1 mutant probe (dsDNA)
DNA 1: B1 DNA 1 with C27A, T28A
DNA 2: B1 DNA 2 with A23T, G24T
For the molecule B2, in the data set with GhWRKY27 [2], the binding result is recorded as “no binding”.

B3: GhRipen2-2 wild probe (dsDNA)
DNA 1: CTGGGCTCAGGTCAGAAAAGCTTTACTCGGGGCTTGACTCGTTTTCTAA
DNA 2: TTAGAAAACGAGTCAAGCCCCGAGTAAAGCTTTTCTGACCTGAGCCCAG
Consider B3, for which the binding result with GhWRKY27 [3] is reported as “binds”.

The values above are taken from publication PMC6440019, “The WRKY transcription factor GhWRKY27 coordinates the senescence regulatory pathway in upland cotton (Gossypium hirsutum L.)”.
